Measured values from patent US6858210B1, “Therapeutic and diagnostic domain 1 β2GPI polypeptides and methods of using same” (La Jolla Pharmaceutical Co., priority 1998, dated 2005).

Legend:
[1] = test system: rabbit anti-human β2GPI; test: Micropanning of mutant domain 1 phage, rabbit antibody; format: binding; parameters: key: 0 (<10 colonies) to 4+ (confluent) semiquantitative colony score; settings: for μpan score: Table 7A; for Micropan score: Table 7B
Method: Error prone PCR was carried out as follows. Domain 1 of human β2GPI was amplified by PCR under conditions that enhance the error rate of Taq polymerase. The primers were such that amino acids 1-64 were amplified. A Sfc 1 restriction site was incorporated as part of amino acid 1. At the 3′ end a Sal 1 restriction site was incorporated after amino acid 64. The PCR reaction was done as described by Leung et al. (1989) Technique 1:11, using 0.25 mM MnCl2. The PCR product was digested with Sfc 1 and Sal 1 and cloned into fd-tet-DOG2 that had been digested with Apal 1 and Sal 1. This positions domain 1 at the N-terminus of pill immediately after the pill signal sequence. The ligation reaction was electroporated in E. coli K91. Phage were harvested and titered by standard methods. Resulting phage clones were assayed using a micropanning technique.
Immulon type 2 plates were coated with protein G. Protein G was prepared at 5 μg/mL in 0.1 M NaHCO3 and 100 μL per well was added to the wells of microtitration plates and incubated overnight at 4° C. After discarding excess protein G solution from plates, each well was blocked with 200 μL 2YT for 1 hour at RT with agitation on an oscillating platform. Tris-buffered saline, pH 7.4/0.5% Tween 20 (TBS/Tween), was used with an automatic plate washer to wash the wells 4 times with 200 μL. One hundred μL human β2GPI-dependent antiphospholipid 6626, 6501, 6701, rabbit β2GPI-dependent antiphospholipid, or control normal IgG, diluted to 2.5 μg/mL with 2YT, was added to washed wells. The plate was incubated for 1 hour at room temperature on a rotating platform.
Phage to be tested by micropanning were obtained from the agar plates generated by biopanning. Each clone to be tested was transferred using sterile toothpicks to a separate well of a round-bottom 96-well microtitration plate (Corning, Corning, N.Y.) containing 200 μL 2YT/Tet per well and cultured overnight at 30° C. Following overnight incubation, phage cultures were centrifuged using a microtitration plate holder at 1300×g for 10 minutes at room temperature. Supernatants constituted the source of “neat” phage. The neat phage were diluted 1: 100-1:1000 and 100 μL was added to the plate containing protein G-bound β2GPI-dependent antiphospholipid antibody-6501 and normal IgG prepared as described above. The incubation of dilute phage with aPL antibody or control IgG was carried out for 2 hours at room temperature on a flat rotator. After 9 washes with TBS/Tween in an automated plate washer, the IgG-bound phage was eluted with 20 μL of 0.2 N HCl-glycine/0.1% BSA, pH 2.2. The elution incubation continued for 10 minutes at RT, during which time a new Corning microtitration plate was prepared containing 20 μL of freshly starved E. coli per well and kept chilled. One hundred forty μL of 29 mM Tris was added to the plate containing the phage eluates in order to neutralize the pH, following which 20 μL of phage suspension was transferred from each well to the corresponding well in the plate containing starved E. coli. After a 10 minute incubation at 37° C., 200 μL 2YT was added and incubation carried out an additional 30 minutes at 37° C. Using multichannel pipettors, 8 μL from each well was spotted on a large 2YT/Tet agar plate while retaining the original 8×12 well pattern and orientation from the last microtitration plate. After allowing the spots to dry for 30 minutes, the plate was incubated overnight at 30° C. The following day, colonies were semiquantitatively scored from 0 to 4+, with 0 symbolizing <10 colonies; 1+=10-30; 2+=30 colonies to 70% confluent; 3+=70%-90% confluent; 4+=confluent.
For Table 7A, the rabbit anti-human β2GPI was performed on two separate occasions. Mutations are listed with the original amino acid, the position number, and the identity of the amino acid at that position in the mutant. […] Non-mutated domain 1 have a score of 3+, while domain 5 phage gave a score of −. Silent mutations are not shown. […]

[2] = test system: human β2GPI-dependent antiphospholipid antibody; test: Micropanning of mutant domain 1 phage, patient antibodies; format: binding; settings: for μpan score: Table 7A; for Micropan score: Table 7B

B1: A10: phage clone, domain 1 mutant D8G (protein)
chain: GRTCPKPGDLPFSTVVPLKTFYEPGEEITYSCKPGYVSRGGMRKFICPLTGLWPINTLKCTPRV
2: μpan score ([2]; antibody 6501) | μpan score ([2]; antibody 6626) | μpan score ([2]; antibody 6701)
2, 2: μpan score ([1]; first (or only) value) | μpan score ([1]; second value (second occasion))

B2: SE3: phage clone, domain 1 mutant T20I (protein)
chain: GRTCPKPDDLPFSTVVPLKIFYEPGEEITYSCKPGYVSRGGMRKFICPLTGLWPINTLKCTPRV
4: Micropan score ([1]; 1st column) | Micropan score ([1]; 2nd column) | Micropan score ([1]; 3rd column) | Micropan score ([1]; 4th column) | Micropan score ([2]; antibody 7008)
3: Micropan score ([2]; antibody 6226) | Micropan score ([2]; antibody 6501) | Micropan score ([2]; antibody 6632) | Micropan score ([2]; antibody 6644) | Micropan score ([2]; antibody 6701)

B3: 4G1: phage clone, domain 1 mutant S31P (protein)
chain: GRTCPKPDDLPFSTVVPLKTFYEPGEEITYPCKPGYVSRGGMRKFICPLTGLWPINTLKCTPRV
4: Micropan score ([1]; 5th column)
2: Micropan score ([2]; antibody 6226) | Micropan score ([2]; antibody 6501) | Micropan score ([2]; antibody 6632) | Micropan score ([2]; antibody 6644) | Micropan score ([2]; antibody 6701) | Micropan score ([2]; antibody 7008)

B4: SH1: phage clone, domain 1 mutant K33E (protein)
chain: GRTCPKPDDLPFSTVVPLKTFYEPGEEITYSCEPGYVSRGGMRKFICPLTGLWPINTLKCTPRV
4: Micropan score ([1]; 1st column) | Micropan score ([1]; 2nd column) | Micropan score ([1]; 3rd column) | Micropan score ([1]; 4th column) | Micropan score ([2]; antibody 6226) | Micropan score ([2]; antibody 6501) | Micropan score ([2]; antibody 6632) | Micropan score ([2]; antibody 6644) | Micropan score ([2]; antibody 6701) | Micropan score ([2]; antibody 7008)

B5: 3B4: phage clone, domain 1 mutant S38T (protein)
chain: GRTCPKPDDLPFSTVVPLKTFYEPGEEITYSCKPGYVTRGGMRKFICPLTGLWPINTLKCTPRV
2: Micropan score ([2]; antibody 6226) | Micropan score ([2]; antibody 6632) | Micropan score ([2]; antibody 6701) | Micropan score ([2]; antibody 7008)
4: Micropan score ([1]; 5th column)
3: Micropan score ([2]; antibody 6501) | Micropan score ([2]; antibody 6644)

B6: 3F6: phage clone, domain 1 mutant K44E (protein)
chain: GRTCPKPDDLPFSTVVPLKTFYEPGEEITYSCKPGYVSRGGMREFICPLTGLWPINTLKCTPRV
4: Micropan score ([1]; 5th column)
0 (0 symbolizing <10 colonies): Micropan score ([2]; antibody 6226) | Micropan score ([2]; antibody 6501) | Micropan score ([2]; antibody 6632) | Micropan score ([2]; antibody 6701)
1: Micropan score ([2]; antibody 6644)
2: Micropan score ([2]; antibody 7008)

B7: SC3: phage clone, domain 1 mutant F45S (protein)
chain: GRTCPKPDDLPFSTVVPLKTFYEPGEEITYSCKPGYVSRGGMRKSICPLTGLWPINTLKCTPRV
1: Micropan score ([2]; antibody 6501)
3: Micropan score ([2]; antibody 6226)
4: Micropan score ([1]; 1st column) | Micropan score ([1]; 2nd column) | Micropan score ([1]; 3rd column) | Micropan score ([1]; 4th column) | Micropan score ([2]; antibody 6632) | Micropan score ([2]; antibody 6644) | Micropan score ([2]; antibody 7008)
0 (0 symbolizing <10 colonies): Micropan score ([2]; antibody 6701)

B8: 4B12: phage clone, domain 1 mutant T50P (protein)
chain: GRTCPKPDDLPFSTVVPLKTFYEPGEEITYSCKPGYVSRGGMRKFICPLPGLWPINTLKCTPRV
1: Micropan score ([2]; antibody 6226) | Micropan score ([2]; antibody 6501) | Micropan score ([2]; antibody 6632) | Micropan score ([2]; antibody 6644) | Micropan score ([2]; antibody 6701) | Micropan score ([2]; antibody 7008)
4: Micropan score ([1]; 5th column)

B9: 3C3: phage clone, domain 1 mutant L52P (protein)
chain: GRTCPKPDDLPFSTVVPLKTFYEPGEEITYSCKPGYVSRGGMRKFICPLTGPWPINTLKCTPRV
0 (0 symbolizing <10 colonies): Micropan score ([2]; antibody 6632)
4: Micropan score ([1]; 5th column)
1: Micropan score ([2]; antibody 6226) | Micropan score ([2]; antibody 6501) | Micropan score ([2]; antibody 6644) | Micropan score ([2]; antibody 6701) | Micropan score ([2]; antibody 7008)

B10: SC10: phage clone, domain 1 mutant N56D (protein)
chain: GRTCPKPDDLPFSTVVPLKTFYEPGEEITYSCKPGYVSRGGMRKFICPLTGLWPIDTLKCTPRV
3: Micropan score ([2]; antibody 6226) | Micropan score ([2]; antibody 6501) | Micropan score ([2]; antibody 6632) | Micropan score ([2]; antibody 6644) | Micropan score ([2]; antibody 6701)
4: Micropan score ([1]; 1st column) | Micropan score ([1]; 2nd column) | Micropan score ([1]; 3rd column) | Micropan score ([1]; 4th column) | Micropan score ([2]; antibody 7008)

B11: 3A4: phage clone, domain 1 multiple mutant D8A, S13T (protein)
chain: GRTCPKPADLPFTTVVPLKTFYEPGEEITYSCKPGYVSRGGMRKFICPLTGLWPINTLKCTPRV
4: Micropan score ([1]; 5th column) | Micropan score ([2]; antibody 6644)
3: Micropan score ([2]; antibody 6226) | Micropan score ([2]; antibody 6501) | Micropan score ([2]; antibody 6632) | Micropan score ([2]; antibody 6701) | Micropan score ([2]; antibody 7008)

B12: 3F12: phage clone, domain 1 multiple mutant L10I, P17Q, Y22C (protein)
chain: GRTCPKPDDIPFSTVVQLKTFCEPGEEITYSCKPGYVSRGGMRKFICPLTGLWPINTLKCTPRV
4: Micropan score ([1]; 5th column)
1: Micropan score ([2]; antibody 6226) | Micropan score ([2]; antibody 6501) | Micropan score ([2]; antibody 6632) | Micropan score ([2]; antibody 6644) | Micropan score ([2]; antibody 6701) | Micropan score ([2]; antibody 7008)

B13: 3G1: phage clone, domain 1 multiple mutant R2W, S38T (protein)
chain: GWTCPKPDDLPFSTVVPLKTFYEPGEEITYSCKPGYVTRGGMRKFICPLTGLWPINTLKCTPRV
1: Micropan score ([2]; antibody 6226) | Micropan score ([2]; antibody 6501) | Micropan score ([2]; antibody 6632) | Micropan score ([2]; antibody 6644) | Micropan score ([2]; antibody 6701) | Micropan score ([2]; antibody 7008)
4: Micropan score ([1]; 5th column)

B14: 4D1: phage clone, domain 1 multiple mutant N56T, R63G (protein)
chain: GRTCPKPDDLPFSTVVPLKTFYEPGEEITYSCKPGYVSRGGMRKFICPLTGLWPITTLKCTPGV
2: Micropan score ([2]; antibody 6501) | Micropan score ([2]; antibody 7008)
3: Micropan score ([2]; antibody 6632)
4: Micropan score ([1]; 5th column) | Micropan score ([2]; antibody 6226) | Micropan score ([2]; antibody 6644) | Micropan score ([2]; antibody 6701)
